Where no end group is shown, it is not given here.
T1: Aleuria aurantia lectin (AAL), biotin-labeled (Aleuria aurantia, UniProt P18891 2-313, biotin label (sites not given))
T1 construct: Bought reagent, used as the comparative lectin
T1 sequence (looked up): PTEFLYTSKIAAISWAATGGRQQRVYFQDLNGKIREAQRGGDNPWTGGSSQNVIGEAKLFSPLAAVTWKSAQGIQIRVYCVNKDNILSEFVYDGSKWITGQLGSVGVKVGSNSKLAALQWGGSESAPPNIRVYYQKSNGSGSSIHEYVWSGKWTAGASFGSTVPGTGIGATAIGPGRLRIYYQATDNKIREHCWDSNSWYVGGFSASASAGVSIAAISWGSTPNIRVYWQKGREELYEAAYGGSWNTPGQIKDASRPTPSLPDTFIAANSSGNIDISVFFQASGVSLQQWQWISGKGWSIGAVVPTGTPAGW

B1: Pholiota squarrosa lectin (PhoSL), biotin-labeled (other)
chain: APVPVTKLVCDGDTYKCTAYLDFGDGRWVAQWDTNVFHTG
modifications: cysteine pairing not given here; also: biotin label, site not given here
notes: Lectin; also called biotin-labeled PhoSL; fucose α1→6 specific lectin
B2: fucosylated PSA (prostate specific antigen) (enzyme)
chain: not shown
modifications: N-linked sugar chain with α1→6 fucose (site not stated)
notes: also called serum fucosylated PSA

Assays:
[1] = target: B2; assay: sandwich ELISA on serum, biotin-labeled PhoSL peptide, pH 9.6
[2] = target: B2; assay: sandwich ELISA: PSA captured on anti-PSA antibody, biotin-lectin detected with HRP-streptavidin
[3] = target: T1, Aleuria aurantia lectin (AAL), …; assay: sandwich ELISA on serum, biotin-labeled AAL, pH 7.4

KPVPVTKLVCDGDTYKCTAKLDFGDGRWVAQWDTNVFHK (cysteine pairing not given here; also: biotin label, sites not given here) [Pholiota squarrosa lectin peptide (PhoSL peptide), biotin-labeled]: binds [1].

B1: binds [2].

B2: binds [3].
